Measured values published in publication doi:10.1101/2020.12.29.424758 (bioRxiv, 2020).

Target: YiiP from S. oneidensis (wild-type) (S. oneidensis, UniProt Q8E919)
Experiment: SEC

YiiP from S. oneidensis (wild-type), sequence (Q8E919 whole entry): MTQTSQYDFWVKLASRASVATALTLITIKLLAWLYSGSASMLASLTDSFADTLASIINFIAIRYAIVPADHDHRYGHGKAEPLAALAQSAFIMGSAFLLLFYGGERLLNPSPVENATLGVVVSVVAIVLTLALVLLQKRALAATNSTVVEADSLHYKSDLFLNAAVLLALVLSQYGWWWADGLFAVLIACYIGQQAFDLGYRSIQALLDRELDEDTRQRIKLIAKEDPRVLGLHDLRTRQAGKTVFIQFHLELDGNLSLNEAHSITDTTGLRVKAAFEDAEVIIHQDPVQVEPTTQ

binding result: binds
B1: Fab2 (Fab, V domains shown)
VH: EVQLVESGGGLVQPGGSLRLSCAASGFTIYSSSIHWVRQAPGKGLEWVASIYSSSGSTYYADSVKGRFTISADTSKNTAYLQMNSLRAEDTAVYYCARQSYSGLSPRRHWSYGAMDYWGQGTLVTVSS
VL: DIQMTQSPSSLSASVGDRVTITCRASQSVSSAVAWYQQKPGKAPKLLIYSASSLYSGVPSRFSGSRSGTDFTLTISSLQPEDFATYYCQQIWSWPLITFGQGTKVEIK
